According to paper doi:10.1101/2025.07.23.666269 (bioRxiv, 2025):

Key:
[1] = biological target: recombinant ɸ6 protein P2 (cystovirus ɸ6) (UniProt P11124); test: MST
[2] = biological target: recombinant ɸ6 protein P2 (cystovirus ɸ6) (UniProt P11124); test: asymmetric flow field flow fractionation
[3] = biological target: recombinant ɸ6 protein P7, full length (cystovirus ɸ6); test: asymmetric flow field flow fractionation
[4] = biological target: RNA-dependent RNA polymerase P2 of cystovirus ɸ6 (in virion-derived particles) (cystovirus ɸ6) (UniProt P11124); test: cryo-EM structure
[5] = biological target: minor protein P7 of cystovirus ɸ6 (in virion-derived particles) (cystovirus ɸ6); test: cryo-EM structure
[6] = biological target: T1, recombinant ɸ6 protein P1 (cystovirus ɸ6, UniProt P11126 1-769); test: co-sedimentation
T1 sequence (looked up): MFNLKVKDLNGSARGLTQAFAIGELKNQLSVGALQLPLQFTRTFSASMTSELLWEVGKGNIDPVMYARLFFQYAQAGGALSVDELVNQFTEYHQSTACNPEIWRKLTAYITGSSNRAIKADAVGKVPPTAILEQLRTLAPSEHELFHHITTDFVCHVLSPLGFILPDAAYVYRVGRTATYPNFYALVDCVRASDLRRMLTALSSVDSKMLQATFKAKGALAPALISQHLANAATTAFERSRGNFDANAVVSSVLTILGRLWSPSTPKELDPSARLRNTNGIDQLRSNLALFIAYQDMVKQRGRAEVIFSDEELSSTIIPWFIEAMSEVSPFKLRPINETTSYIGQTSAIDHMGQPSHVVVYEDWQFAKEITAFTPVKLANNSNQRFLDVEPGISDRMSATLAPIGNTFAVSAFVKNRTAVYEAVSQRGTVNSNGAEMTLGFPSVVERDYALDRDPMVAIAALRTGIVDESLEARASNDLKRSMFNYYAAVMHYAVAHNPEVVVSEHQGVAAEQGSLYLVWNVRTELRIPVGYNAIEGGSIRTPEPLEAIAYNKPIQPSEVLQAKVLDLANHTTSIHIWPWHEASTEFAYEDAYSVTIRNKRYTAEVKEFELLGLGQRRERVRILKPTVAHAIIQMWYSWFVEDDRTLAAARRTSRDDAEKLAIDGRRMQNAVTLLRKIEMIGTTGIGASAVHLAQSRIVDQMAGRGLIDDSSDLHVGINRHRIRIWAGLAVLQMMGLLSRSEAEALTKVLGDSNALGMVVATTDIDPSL

cryo-EM structure = biological target: the molecule itself; test: cryo-EM structure

In the case of “C-terminally truncated P7 comprising residues 2–115 (domain or fragment)”, the Kd [1] is reported as 15.1 µM.

“recombinant ɸ6 protein P7, full length (natural protein)” was tested, and the Kd [1] was 1.3 µM, the stoichiometry N (P7 dimer per P2 monomer) [2] was 1 and the stoichiometry N [3] was 2.

“minor protein P7 of cystovirus ɸ6 (in virion-derived particles) (natural protein)” showed a stoichiometry N (P7 dimers per P2) [4] of 4 and a stoichiometry N [5] of 4.

B1: recombinant ɸ6 protein P2 (enzyme, cystovirus ɸ6)
chain: PRRAPAFPLSDIKAQMLFANNIKAQQASKRSFKEGAIETYEGLLSVDPRFLSFKNELSRYLTDHFPANVDEYGRVYGNGVRTNFFGMRHMNGFPMIPATWPLASNLKKRADADLADGPVSERDNLLFRAAVRLMFSDLEPVPLKIRKGSSTCIPYFSNDMGTKIEIAERALEKAEEAGNLMLQGKFDDAYQLHQMGGAYYVVYRAQSTDAITLDPKTGKFVSKDRMVADFEYAVTGGEQGSLFAASKDASRLKEQYGIDVPDGFFCERRRTAMGGPFALNAPIMAVAQPVRNKIYSKYAYTFHHTTRLNKEEKVKEWSLCVATDVSDHDTFWPGWLRDLICDELLNMGYAPWWVKLFETSLKLPVYVGAPAPEQGHTLLGDPSNPDLEVGLSSGQGATDLMGTLLMSITYLVMQLDHTAPHLNSRIKDMPSACRFLDSYWQGHEEIRQISKSDDAILGWTKGRALVGGHRLFEMLKEGKVNPSPYMKISYEHGGAFLGDILLYDSRREPGSAIFVGNINSMLNNQFSPEYGVQSGVRDRSKRKRPFPGLAWASMKDTYGACPIYSDVLEAIERCWWNAFGESYRAYREDMLKRDTLELSRYVASMARQAGLAELTPIDLEVLADPNKLQYKWTEADVSANIHEVLMHGVSVEKTERFLRSVMPR
modifications: RED fluorescent dye NT-647-NHS (Monolith Protein Labeling Kit RED-NHS), in the MST only
B1: binds [6].

B2: major capsid protein P1 of cystovirus ɸ6 (in virion-derived particles) (natural protein)
chain: MFNLKVKDLNGSARGLTQAFAIGELKNQLSVGALQLPLQFTRTFSASMTSELLWEVGKGNIDPVMYARLFFQYAQAGGALSVDELVNQFTEYHQSTACNPEIWRKLTAYITGSSNRAIKADAVGKVPPTAILEQLRTLAPSEHELFHHITTDFVCHVLSPLGFILPDAAYVYRVGRTATYPNFYALVDCVRASDLRRMLTALSSVDSKMLQATFKAKGALAPALISQHLANAATTAFERSRGNFDANAVVSSVLTILGRLWSPSTPKELDPSARLRNTNGIDQLRSNLALFIAYQDMVKQRGRAEVIFSDEELSSTIIPWFIEAMSEVSPFKLRPINETTSYIGQTSAIDHMGQPSHVVVYEDWQFAKEITAFTPVKLANNSNQRFLDVEPGISDRMSATLAPIGNTFAVSAFVKNRTAVYEAVSQRGTVNSNGAEMTLGFPSVVERDYALDRDPMVAIAALRTGIVDESLEARASNDLKRSMFNYYAAVMHYAVAHNPEVVVSEHQGVAAEQGSLYLVWNVRTELRIPVGYNAIEGGSIRTPEPLEAIAYNKPIQPSEVLQAKVLDLANHTTSIHIWPWHEASTEFAYEDAYSVTIRNKRYTAEVKEFELLGLGQRRERVRILKPTVAHAIIQMWYSWFVEDDRTLAAARRTSRDDAEKLAIDGRRMQNAVTLLRKIEMIGTTGIGASAVHLAQSRIVDQMAGRGLIDDSSDLHVGINRHRIRIWAGLAVLQMMGLLSRSEAEALTKVLGDSNALGMVVATTDIDPSL
In the case of B2, the “stoichiometry N” value (cryo-EM structure) is reported as 2.

B3: outer layer protein P8 of cystovirus ɸ6 (in virion-derived particles) (natural protein)
chain: MLLPVVARAAVPAIESAIAATPGLVSRIAAAIGSKVSPSAILAAVKSNPVVAGLTLAQIGSTGYDAYQQLLENHPEVAEMLKDLSFKADEIQPDFIGNLGQYREELELVEDAARFVGGMSNLIRLRQALELDIKYYGLKMQLNDMGYRS
In the case of B3, the “stoichiometry N” value (cryo-EM structure) is reported as 3.

B4: packaging NTPase P4 of cystovirus ɸ6 (in virion-derived particles) (enzyme, UniProt P11125 2-332, looked up)
chain: PIVVTQAHIDRVGIAADLLDASPVSLQVLGRPTAINTVVIKTYIAAVMELASKQGGSLAGVDIRPSVLLKDTAIFTKPKAKSADVESDVDVLDTGIYSVPGLARKPVTHRWPSEGIYSGVTALMGATGSGKSITLNEKLRPDVLIRWGEVAEAYDELDTAVHISTLDEMLIVCIGLGALGFNVAVDSVRPLLFRLKGAASAGGIVAVFYSLLTDISNLFTQYDCSVVMVVNPMVDAEKIEYVFGQVMASTVGAILCADGNVSRTMFRTNKGRIFNGAAPLAADTHMPSMDRPTSMKALDHTSIASVAPLERGSVDTDDRNSAPRRGANFSL
With B4 the “stoichiometry N” value (cryo-EM structure) was 6.
